The stoichiometry N is the number of molecules, sites or subunits per partner or assembly.

Experimental findings from article PMC11384727 are described below.

The assay addresses PKM2 (pcDNA3.1(+)-PKM2, transfected) (human) (UniProt P14618). Put plainly: cross-linking.

Sequence of PKM2 (pcDNA3.1(+)-PKM2, transfected), P14618 1-531 (enzyme; other documents disagree on this pair) (P14618 whole entry): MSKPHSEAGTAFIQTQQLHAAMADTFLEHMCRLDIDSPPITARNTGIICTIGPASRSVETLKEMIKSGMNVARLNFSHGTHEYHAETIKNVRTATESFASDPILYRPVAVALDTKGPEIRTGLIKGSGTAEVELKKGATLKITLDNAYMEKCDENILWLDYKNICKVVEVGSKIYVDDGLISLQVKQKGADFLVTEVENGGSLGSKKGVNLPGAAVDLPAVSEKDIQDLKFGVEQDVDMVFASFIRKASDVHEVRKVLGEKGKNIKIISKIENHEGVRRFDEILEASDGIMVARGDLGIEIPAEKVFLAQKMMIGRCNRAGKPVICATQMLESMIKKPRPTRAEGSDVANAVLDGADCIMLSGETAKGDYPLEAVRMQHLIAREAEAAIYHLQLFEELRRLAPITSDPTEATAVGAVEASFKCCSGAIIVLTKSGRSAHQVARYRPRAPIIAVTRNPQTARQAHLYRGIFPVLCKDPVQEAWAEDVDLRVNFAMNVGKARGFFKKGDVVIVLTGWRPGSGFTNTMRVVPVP

For the substance “PKM2 (pcDNA3.1(+)-PKM2, transfected), P14618 1-531 (enzyme; other documents disagree on this pair)”, the stoichiometry N is 2.
